Measurements taken from US20260176319A1 (KALLYOPE, published 2026).
Starred links: 1 amine or outer side, 2 acyl side, 3 side chain; linkers in the order of their positions; H or OH if unused. Non-standard residues stand in square brackets, D forms with d. *: point of attachment. Trp(7-Me) = Cc1cccc2c(C[C@H](N)C(=O)O)c[nH]c12; C20 diacid = O=C(O)CCCCCCCCCCCCCCCCCCC(=O)*; d(γGlu) = O=C(O)[C@@H](CCC(=O)[*:2])N[*:1]; γGlu = O=C(O)[C@H](CCC(=O)[*:2])N[*:1]; NMeH = CN[C@@H](Cc1c[nH]cn1)C(=O)O; Palmitoyl = CCCCCCCCCCCCCCCC(=O)*; Hyp = O=C(O)[C@@H]1C[C@@H](O)CN1; 2CE‑PEG‑TMEA = not defined here; 5CTMPA = not defined here; Nle = CCCC[C@H](N)C(=O)O; ACBA = not defined here; ACPA = not defined here; ACPC = not defined here; Dap = NC[C@H](N)C(=O)O; AEEA = NCCOCCOCC(=O)O; βAla = NCCC(=O)O; Sar = CNCC(=O)O

Biological target: human GRP receptor (human, UniProt P30550 1-384)
Sequence (P30550 whole entry): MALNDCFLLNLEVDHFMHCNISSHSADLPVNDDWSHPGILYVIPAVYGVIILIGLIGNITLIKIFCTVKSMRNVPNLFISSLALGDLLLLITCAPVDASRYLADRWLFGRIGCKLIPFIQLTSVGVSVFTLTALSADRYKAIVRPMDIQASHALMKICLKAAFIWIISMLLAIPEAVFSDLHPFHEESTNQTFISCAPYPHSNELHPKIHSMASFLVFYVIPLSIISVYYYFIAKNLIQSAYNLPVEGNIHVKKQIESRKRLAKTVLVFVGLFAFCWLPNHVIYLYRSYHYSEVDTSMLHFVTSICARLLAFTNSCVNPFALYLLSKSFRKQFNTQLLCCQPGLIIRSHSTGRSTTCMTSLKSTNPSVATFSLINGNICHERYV
Assay: cell-based or functional assay

Row | hIP1 GRPR EC50 [nM] | Binder
1 | 6.9 | {C20 diacid}-[γGlu]E[AEEA][AEEA]SGEH[Trp(7-Me)]AV[βAla]HL[Nle]-NH2 (SMILES CCCC[C@H](NC(=O)[C@H](CC(C)C)NC(=O)[C@H](Cc1c[nH]cn1)NC(=O)CCNC(=O)[C@@H](NC(=O)[C@H](C)NC(=O)[C@H](Cc1c[nH]c2c(C)cccc12)NC(=O)[C@H](Cc1c[nH]cn1)NC(=O)[C@H](CCC(=O)O)NC(=O)CNC(=O)[C@H](CO)NC(=O)COCCOCCNC(=O)COCCOCCNC(=O)[C@H](CCC(=O)O)NC(=O)CC[C@H](NC(=O)CCCCCCCCCCCCCCCCCCC(=O)O)C(=O)O)C(C)C)C(N)=O) [Peptide 255]
2 | 10.2 | {C20 diacid}-[γGlu][γGlu][AEEA][AEEA]GQHWAV[ACPC]HL[Nle]-NH2 (reading uncertain) [Peptide 271]
3 | 3.7 | {C20 diacid}-[γGlu]E[AEEA][AEEA]SGRH[Trp(7-Me)]AV[βAla]HL[Nle]-NH2 (SMILES CCCC[C@H](NC(=O)[C@H](CC(C)C)NC(=O)[C@H](Cc1c[nH]cn1)NC(=O)CCNC(=O)[C@@H](NC(=O)[C@H](C)NC(=O)[C@H](Cc1c[nH]c2c(C)cccc12)NC(=O)[C@H](Cc1c[nH]cn1)NC(=O)[C@H](CCCNC(=N)N)NC(=O)CNC(=O)[C@H](CO)NC(=O)COCCOCCNC(=O)COCCOCCNC(=O)[C@H](CCC(=O)O)NC(=O)CC[C@H](NC(=O)CCCCCCCCCCCCCCCCCCC(=O)O)C(=O)O)C(C)C)C(N)=O) [Peptide 256]
4 | 3.8 | {C20 diacid}-[γGlu][γGlu][AEEA][AEEA]GQH[Trp(7-Me)]AV[BABA][NMeH]L[Nle]-NH2 [Peptide 270]
5 | 12.3 | {C20 diacid}-[γGlu]E[AEEA][AEEA]GQHWAV[ACBA]HL[Nle]-NH2 (reading uncertain) [Peptide 273]
6 | 8.6 | {C20 diacid}-[γGlu][AEEA][AEEA]GNH[Trp(7-Me)]AV[3A3MBA]HL[Nle]-NH2 [Peptide 264]
7 | 6 | {C20 diacid}-[γGlu][γGlu][AEEA][AEEA]GNH[Trp(7-Me)]AV[BABA]HL[Nle]-NH2 [Peptide 258]
8 | 4.3 | {C20 diacid}-[γGlu][AEEA][AEEA]PQHWAV[βAla]HL[Nle]-NH2 (SMILES CCCC[C@H](NC(=O)[C@H](CC(C)C)NC(=O)[C@H](Cc1c[nH]cn1)NC(=O)CCNC(=O)[C@@H](NC(=O)[C@H](C)NC(=O)[C@H](Cc1c[nH]c2ccccc12)NC(=O)[C@H](Cc1c[nH]cn1)NC(=O)[C@H](CCC(N)=O)NC(=O)[C@@H]1CCCN1C(=O)COCCOCCNC(=O)COCCOCCNC(=O)CC[C@H](NC(=O)CCCCCCCCCCCCCCCCCCC(=O)O)C(=O)O)C(C)C)C(N)=O) [Peptide 268]
9 | 3.7 | {C20 diacid}-[γGlu][γGlu][AEEA][AEEA]RRH[Trp(7-Me)]AV[βAla]HL[Nle]-NH2 (SMILES CCCC[C@H](NC(=O)[C@H](CC(C)C)NC(=O)[C@H](Cc1c[nH]cn1)NC(=O)CCNC(=O)[C@@H](NC(=O)[C@H](C)NC(=O)[C@H](Cc1c[nH]c2c(C)cccc12)NC(=O)[C@H](Cc1c[nH]cn1)NC(=O)[C@H](CCCNC(=N)N)NC(=O)[C@H](CCCNC(=N)N)NC(=O)COCCOCCNC(=O)COCCOCCNC(=O)CC[C@H](NC(=O)CC[C@H](NC(=O)CCCCCCCCCCCCCCCCCCC(=O)O)C(=O)O)C(=O)O)C(C)C)C(N)=O) [Peptide 253]
10 | 3.7 | {C20 diacid}-[γGlu][γGlu][AEEA][AEEA]RGRH[Trp(7-Me)]AV[βAla]HL[Nle]-NH2 (SMILES CCCC[C@H](NC(=O)[C@H](CC(C)C)NC(=O)[C@H](Cc1c[nH]cn1)NC(=O)CCNC(=O)[C@@H](NC(=O)[C@H](C)NC(=O)[C@H](Cc1c[nH]c2c(C)cccc12)NC(=O)[C@H](Cc1c[nH]cn1)NC(=O)[C@H](CCCNC(=N)N)NC(=O)CNC(=O)[C@H](CCCNC(=N)N)NC(=O)COCCOCCNC(=O)COCCOCCNC(=O)CC[C@H](NC(=O)CC[C@H](NC(=O)CCCCCCCCCCCCCCCCCCC(=O)O)C(=O)O)C(=O)O)C(C)C)C(N)=O) [Peptide 254]
11 | 6 | {C20 diacid}-[γGlu][γGlu][AEEA][AEEA]GQHWAV[ACPA]HL[Nle]-NH2 (reading uncertain) [Peptide 272]
12 | 4 | {C20 diacid}-[γGlu][AEEA][AEEA]G[Dap](5CTMPA)HWAV[βAla]HL[Nle]-NH2 (reading uncertain) [Peptide 261]
13 | 7.7 | {C20 diacid}-[γGlu][AEEA][AEEA]GQHWAV[βAla]HL[Hse(Me)]-NH2 [Peptide 265]
14 | 2.4 | {C20 diacid}-[γGlu][AEEA][AEEA][Hyp]QHWAV[βAla]HL[Nle]-NH2 (SMILES CCCC[C@H](NC(=O)[C@H](CC(C)C)NC(=O)[C@H](Cc1c[nH]cn1)NC(=O)CCNC(=O)[C@@H](NC(=O)[C@H](C)NC(=O)[C@H](Cc1c[nH]c2ccccc12)NC(=O)[C@H](Cc1c[nH]cn1)NC(=O)[C@H](CCC(N)=O)NC(=O)[C@@H]1C[C@@H](O)CN1C(=O)COCCOCCNC(=O)COCCOCCNC(=O)CC[C@H](NC(=O)CCCCCCCCCCCCCCCCCCC(=O)O)C(=O)O)C(C)C)C(N)=O) [Peptide 269]
15 | 2.7 | {C20 diacid}-[γGlu][AEEA][AEEA]GQH[Trp(7-Me)]AV[BAIBA]HL[Nle]-NH2 [Peptide 263]
16 | 1.4 | Palmitoyl-[d(γGlu)][AEEA][AEEA]GNHWAV[dA]HL[Nle][Sar]-NH2 (SMILES CCCCCCCCCCCCCCCC(=O)N[C@H](CCC(=O)NCCOCCOCC(=O)NCCOCCOCC(=O)NCC(=O)N[C@@H](CC(N)=O)C(=O)N[C@@H](Cc1c[nH]cn1)C(=O)N[C@@H](Cc1c[nH]c2ccccc12)C(=O)N[C@@H](C)C(=O)N[C@H](C(=O)N[C@H](C)C(=O)N[C@@H](Cc1c[nH]cn1)C(=O)N[C@@H](CC(C)C)C(=O)N[C@@H](CCCC)C(=O)N(C)CC(N)=O)C(C)C)C(=O)O) [Peptide 15]
17 | 12.5 | {C20 diacid}-[γGlu][γGlu][AEEA][AEEA]ESQH[Trp(7-Me)]AV[βAla]HL[Nle]-NH2 (SMILES CCCC[C@H](NC(=O)[C@H](CC(C)C)NC(=O)[C@H](Cc1c[nH]cn1)NC(=O)CCNC(=O)[C@@H](NC(=O)[C@H](C)NC(=O)[C@H](Cc1c[nH]c2c(C)cccc12)NC(=O)[C@H](Cc1c[nH]cn1)NC(=O)[C@H](CCC(N)=O)NC(=O)[C@H](CO)NC(=O)[C@H](CCC(=O)O)NC(=O)COCCOCCNC(=O)COCCOCCNC(=O)CC[C@H](NC(=O)CC[C@H](NC(=O)CCCCCCCCCCCCCCCCCCC(=O)O)C(=O)O)C(=O)O)C(C)C)C(N)=O) [Peptide 257]
18 | 7.4 | {C20 diacid}-[γGlu][AEEA][AEEA]GQHWAV[βAla][NMeH]L[Nle]-NH2 (SMILES CCCC[C@H](NC(=O)[C@H](CC(C)C)NC(=O)[C@H](Cc1c[nH]cn1)N(C)C(=O)CCNC(=O)[C@@H](NC(=O)[C@H](C)NC(=O)[C@H](Cc1c[nH]c2ccccc12)NC(=O)[C@H](Cc1c[nH]cn1)NC(=O)[C@H](CCC(N)=O)NC(=O)CNC(=O)COCCOCCNC(=O)COCCOCCNC(=O)CC[C@H](NC(=O)CCCCCCCCCCCCCCCCCCC(=O)O)C(=O)O)C(C)C)C(N)=O) [Peptide 267]
19 | 4 | {C20 diacid}-[γGlu][AEEA][AEEA]G[Dap](2CE‑PEG‑TMEA)HWAV[βAla]HL[Nle]-NH2 (reading uncertain) [Peptide 262]
20 | 5.8 | Palmitoyl-[d(γGlu)][AEEA][AEEA]GEHWAV[dA]HL[Nle]-NH2 (SMILES CCCCCCCCCCCCCCCC(=O)N[C@H](CCC(=O)NCCOCCOCC(=O)NCCOCCOCC(=O)NCC(=O)N[C@@H](CCC(=O)O)C(=O)N[C@@H](Cc1c[nH]cn1)C(=O)N[C@@H](Cc1c[nH]c2ccccc12)C(=O)N[C@@H](C)C(=O)N[C@H](C(=O)N[C@H](C)C(=O)N[C@@H](Cc1c[nH]cn1)C(=O)N[C@@H](CC(C)C)C(=O)N[C@@H](CCCC)C(N)=O)C(C)C)C(=O)O) [Peptide 16]
21 | 8.2 | {C20 diacid}-[γGlu][γGlu][AEEA][AEEA]GQH[Trp(7-Me)]AV[BABA]HL[Nle]-NH2 [Peptide 259]
22 | 11 | {C20 diacid}-[γGlu][AEEA][AEEA]GEGEHWAV[βAla]HL[Nle]-NH2 (SMILES CCCC[C@H](NC(=O)[C@H](CC(C)C)NC(=O)[C@H](Cc1c[nH]cn1)NC(=O)CCNC(=O)[C@@H](NC(=O)[C@H](C)NC(=O)[C@H](Cc1c[nH]c2ccccc12)NC(=O)[C@H](Cc1c[nH]cn1)NC(=O)[C@H](CCC(=O)O)NC(=O)CNC(=O)[C@H](CCC(=O)O)NC(=O)CNC(=O)COCCOCCNC(=O)COCCOCCNC(=O)CC[C@H](NC(=O)CCCCCCCCCCCCCCCCCCC(=O)O)C(=O)O)C(C)C)C(N)=O) [Peptide 266]
